From patent US6406872

B1: UNC-49C GABA receptor subunit (receptor)
chain: QDEDSHINTQLLSSVLDRLTNRTTYDKRLRPRYGEKPVDVGITIHVSSISAVSEVDMDFTLDFYMRQTWQDPRLAFGSLDLGLSKEIDSLTVGVDYLDRLWKPDTFFPNEKKSFFHLATTHNSFLRIEGDGTVYTSQRLTVTATCPMDLKLFPMDSQHCKLEIESYAYSTAEIEYKWCTSKEPNCSTAVKADANIELSSYKFTKICQKRTLASTSSGTYSRLRVSFIFDRDSGFYFLQIFFPASLVVVLSWISFWINRDSAPSRTLIGTMTVLTETHLMTGTNRRLPPVAYVKAVDVFLGFCYLLVILALIEYACVAYSKKKNEDRRRREKKTEHKPAPPTPDILHDVRLAECTCNAAPTSIIAVIKQSNRFCVSHSHIDIVSRAAFPLVFILFNTLFWLILLYKSKRLPYISEHEGDRCDAPDLH
B2: UNC-49B GABA receptor subunit (UNC-49B.1 isoform) (receptor)
chain: QDEDSHINTQLLSSVLDRLTNRTTYDKRLRPRYGEKPVDVGITIHVSSISAVSEVDMDFTLDFYMRQTWQDPRLAFGSLDLGLSKEIDSLTVGVDYLDRLWKPDTFFPNEKKSFFHLATTHNSFLRIEGDGTVYTSQRLTVTATCPMDLKLFPMDSQHCKLEIESYGYETKDIDYYWGKKRTDLEITAVKFDTFQLPQFQPTLYFVNTTKAETSSGKYVRLALEVILVRNMGFYTMNIVIPSILIVTISWVSFWLNREASPARVGLGVTTVLTMTTLITTTNNSMPKVSYVKGLDVFLNFCFVMVFASLLEYAIVSYMNKRLVLRREKRRKAAEQQQRNEMPMFNASPKAANNNADLYFAGHNSSMNPLMEIPENCDCRTIPMMQHPRLVTDGAHTLWPAPFARPKKASKTCCQRWTPAKIDKLSRYGFPLSFSIFNIVYWLYMKYLSLNSSDKIQENDKWQQIH

How the values were obtained:
[1] = target: B2; assay: cell-based or functional assay
[2] = target: the molecule itself; assay: cell-based or functional assay

Binder	EC50 (µM) of GABA, two-electrode voltage clamp, Xenopus oocytes co-injected with UNC-49B and UNC-49C RNA [1] [µM]	EC50 (µM) of GABA, two-electrode voltage clamp, Xenopus oocytes injected with UNC-49B.1 mRNA alone [2] [µM]
B1	108	
B2		43.7
